These results are taken from PMC2686265, “ATP and MO25α Regulate the Conformational State of the STRADα Pseudokinase and Activation of the LKB1 Tumour Suppressor” (PLoS Biology, 2009).

The target of assay [1] is T1, MO25α (WT) (Homo sapiens, UniProt Q7RTN6+Q9Y376).
T1 construct: wild-type and mutant forms of STRADα (residues 54–431) and MO25α (residues 1–341) were expressed individually as GST fusion proteins in E. coli; GST (cleaved yes); made in house; host or cells: E. coli (STRADα: BL21(DE3)pLysS, co-expressed with MO25α and then separated from it)
T1 sequence (Q9Y376 1-341): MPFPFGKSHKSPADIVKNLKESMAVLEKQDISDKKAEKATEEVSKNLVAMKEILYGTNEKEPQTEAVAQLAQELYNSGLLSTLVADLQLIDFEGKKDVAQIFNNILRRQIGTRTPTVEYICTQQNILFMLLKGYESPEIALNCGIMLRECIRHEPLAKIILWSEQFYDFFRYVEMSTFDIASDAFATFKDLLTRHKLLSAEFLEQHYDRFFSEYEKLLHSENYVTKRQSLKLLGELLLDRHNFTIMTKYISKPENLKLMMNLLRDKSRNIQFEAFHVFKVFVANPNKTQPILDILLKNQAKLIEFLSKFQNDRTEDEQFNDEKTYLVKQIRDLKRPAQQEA
T1 sequence (Q7RTN6 59-431): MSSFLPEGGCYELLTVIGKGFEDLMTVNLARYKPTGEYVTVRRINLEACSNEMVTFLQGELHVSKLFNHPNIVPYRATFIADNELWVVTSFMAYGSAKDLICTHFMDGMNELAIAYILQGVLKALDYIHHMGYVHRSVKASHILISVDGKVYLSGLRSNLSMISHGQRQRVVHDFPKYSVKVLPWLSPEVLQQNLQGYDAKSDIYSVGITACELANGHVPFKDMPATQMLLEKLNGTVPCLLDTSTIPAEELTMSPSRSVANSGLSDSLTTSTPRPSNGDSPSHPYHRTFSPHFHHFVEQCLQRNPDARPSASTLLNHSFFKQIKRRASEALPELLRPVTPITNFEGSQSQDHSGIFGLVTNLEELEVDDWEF
The experiment in a line: SPR BIAcore binding of STRADα to immobilised MO25α. Conditions: + ATP + Mg2+. How it is done: (§1) SPR measurements were performed using a BIAcore T100 instrument. Wild-type and mutant forms of MO25α were immobilized on a CM5 sensor chip using standard amine-coupling chemistry, and 10 mM HBS (pH 7.4) was used as the running buffer. The carboxymethyl dextran surface was activated with a 7-min injection of a 1∶1 ratio of 0.4 M 1-ethyl-3-(3-dimethylaminopropyl) carbodiimide hydrochloride (EDC)/0.1 M N-hydroxy succinimide (NHS). MO25α (5–7 µM) was coupled to the surface with a 1-min injection of protein diluted in 10 mM sodium acetate (pH 5.5). Remaining activated groups were blocked with a 7-min injection of 1 M ethanolamine (pH 8.5). MO25α was immobilised on three flow cells of a CM5 chip at densities 1,700–2,500 RU performed at 25°C, leaving one flow cell as a reference to subtract any possible nonspecific binding.
(§2) STRADα was prepared in running buffer containing 50 mM Tris (pH 7.8), 50 mM NaCl, 270 mM sucrose, 1 mM DTT, 0.005% P20, and 0.1 mg/ml BSA in the presence/absence of 100 µM ATP and 1 mM MgCl2, and injected over all four surfaces at nine concentrations of a 3-fold concentration series (5 µM to […]). Each concentration was injected in duplicate over all surfaces. Association was measured for 60 s at a flow rate of 50 µl/min, and dissociation was measured for 3 min. STRADα dissociated completely from the MO25α surfaces, thus eliminating the need for a regeneration step.
(§3) Data were analysed using Scrubber 2 (BioLogic Software) and CLAMP software. Data were double referenced to the reference surface to subtract any possible nonspecific binding and to the blank buffer injections to subtract drift of the target from surface. Data were fitted to a 1∶1 or 2∶1 binding site model where appropriate. Kinetic association (k a) and dissociation rate (k d) constants were separately determined from the BIAcore sensorgrams, and equilibrium dissociation constants (K d) were calculated as: K d1 = k d1/k a1 and K d2 = k d2/k a2. Equilibrium constants were also independently calculated from a saturation binding curve, by fitting the measured response (R) from specific binding to the following equation: R = (R max1[STRAD]/([STRAD]+K d1))+(R max2[STRAD]/([STRAD]+K d2)), where R max1 and R max2 are the relative maximal changes in response for sites 1 and 2, respectively, and K d1 and K d2 are the equilibrium dissociation constants for sites 1 and 2, respectively. Dose-response curves for calculating the Hill slope (H) of the data were fitted with the following equation: R = minimum+(maximum−minimum)/(1+10^((logEC50−[STRAD])×H)) using GraphPad-PRISM software.
Background: Surface plasmon resonance follows binding to a sensor surface in real time, without labels.

Assay [2] concerns the target T2, MO25α (R227A) (Homo sapiens, UniProt Q7RTN6+Q9Y376, R227A).
T2 construct: wild-type and mutant forms of STRADα (residues 54–431) and MO25α (residues 1–341) were expressed individually as GST fusion proteins in E. coli; GST (cleaved yes); made in house; host or cells: E. coli
T2 sequence (Q9Y376 1-341 R227A): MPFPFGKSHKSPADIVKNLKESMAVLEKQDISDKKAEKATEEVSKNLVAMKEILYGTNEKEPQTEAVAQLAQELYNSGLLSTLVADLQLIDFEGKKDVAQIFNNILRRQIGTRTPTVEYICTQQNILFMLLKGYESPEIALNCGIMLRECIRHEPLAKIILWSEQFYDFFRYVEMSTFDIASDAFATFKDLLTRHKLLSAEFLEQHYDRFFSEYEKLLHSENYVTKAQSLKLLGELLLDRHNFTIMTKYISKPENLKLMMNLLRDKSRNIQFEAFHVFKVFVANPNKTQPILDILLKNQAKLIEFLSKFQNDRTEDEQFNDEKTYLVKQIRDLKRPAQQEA
T2 sequence (Q7RTN6 59-431): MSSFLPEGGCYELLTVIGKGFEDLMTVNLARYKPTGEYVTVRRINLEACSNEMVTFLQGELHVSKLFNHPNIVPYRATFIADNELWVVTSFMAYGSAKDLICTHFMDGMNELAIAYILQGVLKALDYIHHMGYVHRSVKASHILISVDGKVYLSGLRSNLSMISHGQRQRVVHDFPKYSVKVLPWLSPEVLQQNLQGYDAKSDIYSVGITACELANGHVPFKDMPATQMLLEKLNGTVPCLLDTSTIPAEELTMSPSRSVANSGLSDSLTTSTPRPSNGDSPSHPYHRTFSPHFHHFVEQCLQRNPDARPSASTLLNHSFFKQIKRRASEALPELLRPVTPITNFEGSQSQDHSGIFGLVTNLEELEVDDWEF
The assay can be described thus: SPR BIAcore binding of STRADα to immobilised MO25α. To be noted: + ATP + Mg2+. How it is done: as §1, §2, §3

The target of assay [3] is T3, MO25α (M260A) (Homo sapiens, UniProt Q7RTN6+Q9Y376, M260A).
T3 construct: wild-type and mutant forms of STRADα (residues 54–431) and MO25α (residues 1–341) were expressed individually as GST fusion proteins in E. coli; GST (cleaved yes); made in house; host or cells: E. coli
T3 sequence (Q9Y376 1-341 M260A): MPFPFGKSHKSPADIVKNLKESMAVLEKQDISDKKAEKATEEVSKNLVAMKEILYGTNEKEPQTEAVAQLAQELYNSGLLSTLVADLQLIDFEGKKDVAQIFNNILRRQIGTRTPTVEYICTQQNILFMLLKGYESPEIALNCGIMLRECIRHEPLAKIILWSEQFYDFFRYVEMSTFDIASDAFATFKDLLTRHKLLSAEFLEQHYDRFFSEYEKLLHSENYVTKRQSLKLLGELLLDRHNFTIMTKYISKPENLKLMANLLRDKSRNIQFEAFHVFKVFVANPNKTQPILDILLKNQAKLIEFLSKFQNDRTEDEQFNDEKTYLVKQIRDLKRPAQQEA
T3 sequence (Q7RTN6 59-431): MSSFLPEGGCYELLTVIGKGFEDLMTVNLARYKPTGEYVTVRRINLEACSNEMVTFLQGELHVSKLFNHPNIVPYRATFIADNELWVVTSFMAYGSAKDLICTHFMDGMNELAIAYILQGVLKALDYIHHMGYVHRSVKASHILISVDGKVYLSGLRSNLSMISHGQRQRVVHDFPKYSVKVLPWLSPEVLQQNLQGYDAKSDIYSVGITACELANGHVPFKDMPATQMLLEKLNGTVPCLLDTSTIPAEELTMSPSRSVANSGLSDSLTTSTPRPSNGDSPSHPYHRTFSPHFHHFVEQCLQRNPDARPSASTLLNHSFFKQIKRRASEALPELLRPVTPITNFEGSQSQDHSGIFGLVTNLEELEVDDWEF
The assay can be described thus: SPR BIAcore binding of STRADα to immobilised MO25α. To be noted: + ATP + Mg2+. The method, then: as §1, §2, §3

For assay [4], the target named is T4, untagged STRADα (residues 59–431) (human, UniProt Q7RTN6 59-431).
T4 construct: STRADα, human, residues 59–431; also called STRADα lacking the His tag
T4 sequence (looked up): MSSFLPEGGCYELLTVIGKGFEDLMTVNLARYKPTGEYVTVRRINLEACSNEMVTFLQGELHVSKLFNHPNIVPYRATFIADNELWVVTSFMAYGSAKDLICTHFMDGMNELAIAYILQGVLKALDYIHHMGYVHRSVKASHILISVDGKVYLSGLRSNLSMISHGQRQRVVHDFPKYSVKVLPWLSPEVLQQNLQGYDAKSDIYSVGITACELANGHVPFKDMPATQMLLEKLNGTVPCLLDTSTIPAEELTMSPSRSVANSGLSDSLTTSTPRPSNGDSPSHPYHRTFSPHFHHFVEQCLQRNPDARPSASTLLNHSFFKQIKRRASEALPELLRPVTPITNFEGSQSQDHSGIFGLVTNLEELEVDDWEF
The assay can be described thus: SPR; BIAcore T100, MO25α amine-coupled to CM5 chip, STRADα injected (5 µM to 0.3 nM), 25°C, 50 mM Tris pH 7.8, 50 mM NaCl, 270 mM sucrose, 1 mM DTT, 0.005% P20, 0.1 mg/ml BSA; without ATP; Kd = kd/ka. Conditions: both partners purified.

B1: His-STRADα: STRADα (residues 59–431) with N-terminal 6-His tag, SPR analyte (protein)
chain: MSSFLPEGGCYELLTVIGKGFEDLMTVNLARYKPTGEYVTVRRINLEACSNEMVTFLQGELHVSKLFNHPNIVPYRATFIADNELWVVTSFMAYGSAKDLICTHFMDGMNELAIAYILQGVLKALDYIHHMGYVHRSVKASHILISVDGKVYLSGLRSNLSMISHGQRQRVVHDFPKYSVKVLPWLSPEVLQQNLQGYDAKSDIYSVGITACELANGHVPFKDMPATQMLLEKLNGTVPCLLDTSTIPAEELTMSPSRSVANSGLSDSLTTSTPRPSNGDSPSHPYHRTFSPHFHHFVEQCLQRNPDARPSASTLLNHSFFKQIKRRASEALPELLRPVTPITNFEGSQSQDHSGIFGLVTNLEELEVDDWEF
modifications: lysines chemically methylated in the 2.35 Å crystal form only; left off: His6 with TEV site (…), N-terminal, kept
notes: STRADα (residues 59–431) with N-terminal 6-His tag, SPR analyte
In the case of B1, the kd1 is 0.55 (3.8 × 10−3) s−1 in assay [1], 1.61 (7.0 × 10−3) s−1 in assay [2] and 0.77 (4.6 × 10−3) s−1 in assay [3]. For the same molecule, the kd2 in assay [1] was 0.08 (4.8 × 10−4) s−1; in assay [3] it was 0.11 (5.3 × 10−4) s−1.

B2: MO25α (WT) (residues 1–341) (natural protein, human, UniProt Q9Y376 1-341, looked up)
chain: MPFPFGKSHKSPADIVKNLKESMAVLEKQDISDKKAEKATEEVSKNLVAMKEILYGTNEKEPQTEAVAQLAQELYNSGLLSTLVADLQLIDFEGKKDVAQIFNNILRRQIGTRTPTVEYICTQQNILFMLLKGYESPEIALNCGIMLRECIRHEPLAKIILWSEQFYDFFRYVEMSTFDIASDAFATFKDLLTRHKLLSAEFLEQHYDRFFSEYEKLLHSENYVTKRQSLKLLGELLLDRHNFTIMTKYISKPENLKLMMNLLRDKSRNIQFEAFHVFKVFVANPNKTQPILDILLKNQAKLIEFLSKFQNDRTEDEQFNDEKTYLVKQIRDLKRPAQQEA
notes: MO25α, human, residues 1–341 (full length); also called MO25α (WT, wild type); wild-type MO25α; source: E. coli, expressed individually as GST fusion, purified on glutathione-Sepharose, eluted with PreScission protease
What is called Kd is the concentration at which binding is half-saturated. Higher therefore signals lower affinity. In assay [4], B2 returned a Kd of 3.8 µM.

B3: MO25α (M260A) (residues 1–341) (natural protein, human, UniProt Q9Y376 1-341, looked up)
chain: MPFPFGKSHKSPADIVKNLKESMAVLEKQDISDKKAEKATEEVSKNLVAMKEILYGTNEKEPQTEAVAQLAQELYNSGLLSTLVADLQLIDFEGKKDVAQIFNNILRRQIGTRTPTVEYICTQQNILFMLLKGYESPEIALNCGIMLRECIRHEPLAKIILWSEQFYDFFRYVEMSTFDIASDAFATFKDLLTRHKLLSAEFLEQHYDRFFSEYEKLLHSENYVTKRQSLKLLGELLLDRHNFTIMTKYISKPENLKLMANLLRDKSRNIQFEAFHVFKVFVANPNKTQPILDILLKNQAKLIEFLSKFQNDRTEDEQFNDEKTYLVKQIRDLKRPAQQEA
notes: MO25α, human, residues 1–341 (full length), M260A; source: E. coli, expressed individually as GST fusion, purified on glutathione-Sepharose, eluted with PreScission protease
On to B3, for which the binding result in assay [4] is listed as “binds”.
